Laboratory results published in US20240190918A1, “FIBRIL PEPTIDES” (Universität Ulm, priority 2021, published 2024).
Entries after “also recorded” stand apart in the source; their conditions may differ. Peptide text beside a SMILES is read from it.

Columns and labels:
[1] = Thioflavin T (ThT) fluorescence, fibril formation; type: physicochemical; conditions: peptide 2 mg/ml in PBS, RT 10 min; 'except for' = no ThT signal detected
From the text: The fibril peptide has the activity of forming fibrils in an aqueous solution, the term “fibril” relating to any threadlike structure or filament comprising, preferably consisting of, a multitude of fibril peptides; preferably, the fibrils are nanofibrils, i.e. have a diameter of from 2 to 20 nm, and/or a length of from 100 nm to 10 μm, preferably of from 100 nm to 5 μm. Preferably, aggregation of fibril peptides occurs spontaneously in aqueous solution, wherein an aqueous solution is a solution comprising at most 28% (v/v), preferably at most 15% (v/v), more preferably at most 10% (v/v), still more preferably at most 5% (v/v), most preferably at most 2% (v/v), organic solvents. Methods for determining the activity of forming fibrils are known to the skilled person and are shown herein in the Examples. Preferably, the activity of forming fibrils is determined by a Thioflavin T binding assay as specified herein in the Examples. The activity of forming fibrils may, however, also be determined by Transmission electron microscopy (TEM), Congo Red staining, measurement of conversion rate, and/or Fourier transform infrared (FTIR) spectroscopy; the aforesaid methods are known in the art.
The peptides were solved in HFIP (1,1,1,3,3,3-Hexafluoro-2-propanol) and were sonicated using an Ultrasonic cleaner. The peptides were stored at −20° C. and for each experiment they were freshly dissolved in DMSO to 10 mg/ml; to generate fibrils, the peptides were diluted in PBS to get 2 mg/ml or 1 mg/ml and incubated for 10 min at room temperature (RT).
The lyophilized RM-8 and its derivatives (Peptides 1-42) were solved in DMSO to 10 mg/ml and stored at 4° C. For each experiment they were freshly solved in PBS to 2 mg/ml and incubated for 10 min at RT.
(§1) Peptides derived from human interleukin-18 were identified by an in silico-screening approach where the human protein interleukin-18 (Q14116) was analyzed by the amyloid prediction tools ZipperDB, TANGO 2.0 and PASTA (FIG. 1A). To examine if these endogenous peptides form nanofibrils, the freshly prepared peptides were incubated with the amyloid specific dye Thioflavin T (ThT), which fluorescence increases upon binding to amyloid fibrils. […] To determine if the IL-18 peptides have the ability to form positively charged fibrils the zeta potential was measured.

R5-tropic HIV-1 = experiment: HIV-1 infection of TZM-bl cells, Tat-inducible β-galactosidase activity; conditions: 3 days; for n-fold enhancement of HIV-1 infection: virus treated with 150 μg/ml peptide
Protocol: HIV-1 was produced from pBRNL4.39-92TH14, a plasmid containing a CCR5 tropic molecular HIV-1 clone (Papkalla et al., 2002). Infectious HIV-1 stocks were prepared by transfection of 293T cells by calcium phosphate transfection and HIV-1 infection of TZM-bl cells was determined by detecting cellular β-galactosidase activity.
To determine the effect on HIV-1 infection, stocks of the CCR5 tropic HIV-1 were generated by transient transduction of 293T cells with proviral DNA and harvested 2 days later. The HIV-1 stock was titrated and a dilution factor of 125 was chosen for infection of TZM-bl cells to reach a maximal infection enhancement. HIV-1 virus was added to serially diluted IL-18 peptides and mixtures were used to infect TZM-bl cells which contain the reporter gene β-galacosidase under the control of the HIV-1-LTR promoter (Wei et al., 2002).

[2] = Zeta potential of peptide nanofibrils; type: physicochemical; conditions: peptides incubated at RT for 10 min
Protocol: FIG. 1: Human interleukin-18 (IL-18) derived peptides form nanofibrils. (A) Table displaying sequences, physical and chemical parameters of peptides derived from IL-18. The positively charged amino acids are written in italics. (B) ThT fluorescence of the tested peptides and EF-C (Protransduzin®-A) which were incubated at RT for 10 min. (C) Zeta potential of peptides which were incubated at RT for 10 min. Shown are average values (±SD) of duplicates from two independent experiments. (D-J) Transmission electron microscopy images of EF-C (D), RK-10 (E-F), RM-8 (G-H), RS-7 (I), and FK-7 (J). […]
FIG. 5: RM-8 analogs from alanine scanning form positively charged nanofibrils. […] (B) ThT fluorescence of alanine scanning derived peptides, RM-8, QH-9 and EF-C. […]
as §1

Fibril stability by UPLC = type: physicochemical; conditions: 2 mg/ml; 10 min, 1 h, 24 h, 10 d at RT or 37° C.
Protocol: Fibrils were generated by dissolving lyophilized peptides in DMSO to 10 mg/ml followed by adding PBS to receive a final concentration of 2 mg/ml. Fibril stocks were incubated at room temperature (RT) and 37° C. and after 10 min, 1 h, 24 h and 10 days stability assays using ultra performance liquid chromatography (UPLC) with a reverse phase column was performed in collaboration with the Core Facility Functional Peptidomics (Ulm University). Shown is one individual experiment.
Since the stability of pharmaceutical products must be ensured during application (Grassi et al., 2019), we analyzed the stability of RM-8, which contains a C-terminal methionine, an amino acid sensitive to oxidation, by ultra performance liquid chromatography (UPLC). To that end, RM-8 nanofibrils were incubated for 10 min, 1 h, 24 h or 10 d at room temperature (RT) of 37° C. followed by UPLC analysis.

[3] = system: Human CD4+ and CD8+ T cells; experiment: Viability of transduced human T cells, trypan blue staining; type: cell-based; conditions: 7 days
Protocol: FIG. 10: RM-8 nanofibrils enhance GALV-γ-RV transduction of T cells. […] GFP expression of CD3+ cells was analyzed by flow cytometry. Viability was determined by trypan blue staining. Human CD4+ and CD8+ T cells were isolated from Buffy coats of two donors. Indicated transduction enhancers were incubated with GAL V-γ-RV and then the mix was used to transduce T cells. Shown are average values (±SD). SD, standard deviation.
For the CAR T cell like process human CD4+ and CD8+ T cells were isolated from Buffy coats of two donors using RosetteSep™ Human CD4+ and CD8+ T Cell Enrichment Cocktail (STEMCELL Technologies) according to manufacturer's protocol. Isolated T cells were activated using Dynabeads™ Human T-Activator CD3/CD28 (Gibco™) according to manufacturer's protocol for three days in presence of 10 ng/ml interleukin-2 (IL-2). After 3 days the magnetic Dynabeads were removed using a magnet and T cells were cultured in presence of 9 ng/ml interleukin-7 (IL-7) and 10 ng/ml interleukin-15 (IL-15). After 1 day T cells were transduced with GALV-γ-RV using the transduction enhancers RM-8 (50 μg/ml), Vectofusin®-1 (10 μg/ml), or RetroNectin (20 μg/ml). […] After 7 days the transduced T cells were analyzed by flow cytometry.

RTIFIRSM (Peptide 25)
ThT signal (fibril formation) [1]: except for

RS-7: peptide derived from human interleukin-18; sequence only in FIG. 1A (RTIFIIS; Peptide RS-7)
n-fold enhancement of HIV-1 infection (R5-tropic HIV-1): weak or no effects

RTIFIISMYK (fibril peptide 34) [RK-10]
zeta potential (sign) [2]: positive zeta potential
enhancement of HIV-1 infection (in words) (R5-tropic HIV-1; serially diluted peptides): dose-dependably enhancement

RTIPIISM (Peptide 17)
ThT signal (fibril formation) [1]: except for

CC[C@H](C)[C@H](NC(=O)[C@H](Cc1ccccc1)NC(=O)[C@@H](NC(=O)[C@@H](NC(=O)[C@@H](N)CCCNC(=N)N)[C@@H](C)O)[C@@H](C)CC)C(=O)N[C@H](C(=O)N[C@@H](CO)C(=O)N[C@@H](CCSC)C(=O)O)[C@@H](C)CC [RM-8, RTIFIISM] (H-RTIFIISM-OH)
stability of nanofibrils (UPLC) (Fibril stability by UPLC): stable for 10 days; also recorded: stable over time
cytotoxicity on T cells [3]: without showing cytotoxicity; also recorded: not showing cytotoxicity

RTIFIISA (fibril peptide 24) [Peptide A8, RM-8 analog from alanine scanning]
ThT signal (fibril formation) [1]: except for

RTIAIISM (fibril peptide 20) [Peptide A4, RM-8 analog from alanine scanning]
ThT signal (fibril formation) [1]: except for

RS-12: peptide derived from human interleukin-18; sequence only in FIG. 1A (RDNAPRTIFIIS; Peptide RS-12)
n-fold enhancement of HIV-1 infection (R5-tropic HIV-1): weak or no effects

FK-7: peptide derived from human interleukin-18; sequence only in FIG. 1A (FIISMYK; Peptide FK-7)
n-fold enhancement of HIV-1 infection (R5-tropic HIV-1): weak or no effects

RTIFIKSM (Peptide 26)
ThT signal (fibril formation) [1]: except for

RTIFGISM (Peptide 18)
ThT signal (fibril formation) [1]: except for
